In the supplement of paper PMC12764529:
± gives the half width of the 95% confidence interval.

Assays:
[1] = folding stability dG unfold (combined trypsin and chymotrypsin); higher = more stable
Outline: (§1)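 Sequencing followed digestion of designed mini-proteins with trypsin and chymotrypsin, each at 11 concentrations in threefold dilutions together with a no-protease condition. The mini-proteins were under 80 residues, had no cysteine, sat in a PA-tagged cDNA display construct, and were kept only if AlphaFold2 dimer inter-PAE was above 15. From the counts, Bayesian fitting gave K50, and unfolding free energy was derived against a sequence-predicted unfolded-state K50 and a shared folded-state K50, per protease or combined.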

[2] = folding stability dG unfold from chymotrypsin proteolysis; higher = more stable
Outline: as §1

[3] = folding stability dG unfold from trypsin proteolysis; higher = more stable
Outline: as §1

Row | Sequence | folding stability dG unfold [1] [kJ/mol] | folding stability dG unfold [2] [kJ/mol] | folding stability dG unfold [3] [kJ/mol]
1 | SAGGKMLVKIKIKVTIYDKNGKPVKEVELELVFPSLEDLLNALKSLSPEKIKKVEIVSIEEIDEEDLSAGGS [r16_677_TrROS_Hall] | 15.6 ± 0.879 | 17 ± 1.34 | 14.6 ± 1.09
2 | SAGGSAGGSAGIPLGPDGGLIVTEGPDGPVEERLFASPEEARRWIEEHLPEGWRVVFRPLSAGGSAGGSAGG [r11_983_TrMRF] | 6.16 ± 0.243 | 6.68 ± 0.544 | 4.81 ± 0.0711
3 | SAGVLTIEVQMPADDAEEFAEEVADTIARRLGFPPGFKIKVKVDRFDPDNGYVRVEATIEFPLPPNQPPSAG [r5_537_TrROS] | 10.2 ± 0.414 | 9.17 ± 0.247 | 10.9 ± 0.502
4 | SAGPPPWMVIRIPFWVKVTPDDGIITIEFKIEIGNKEFKIKITIPIPPELADAPPGETIPIPIWIFIRPSAG [r5_714_TrROS] | 20.1 ± 0.544 | 21.5 ± 0.259 | 16.7 ± 0.669
5 | SDKLAKLLEDELEKAGYEVVSVEVRYDPEKGLLYVNALVRRKDDPTWYRVRAVYNPETDELLEVKIEPLPSA [r9_814_TrMRF] | > 25.1 | 26.3 ± 0.46 | 23.3 ± 0.879
6 | SAEKTLTIPITLENGATLTITVYEDRIEATLEVDGLTGTGYTLPDGTVVLNLRAPGNKPIASPVFTLDLSAG [r14_213_TrMRF] | 9.66 ± 0.502 | 10.4 ± 0.251 | 7.25 ± 0.243
7 | SAGGSAGGSKAEVFETPDGLVVVVVPTEDSVRAFVFFPDGYIAEFDFPTGKIVRIFSPDEEIASAGGSAGGS [r12_235_TrMRF] | 13.7 ± 0.331 | 14.8 ± 0.218 | 11.7 ± 0.377
8 | SAGGEFRITFMVPADPNDPAVELAKWIADEFMPPGWKVEVDIKVVPSPDGYYMIDIPVEIMPPGQPISAGGS [r16_128_TrROS] | 10.4 ± 0.753 | 11.8 ± 0.197 | 7.17 ± 0.586
9 | SAKIRIPLEKLIDLAESIPGVEVLYDPETGLLLAFIPEIGMLILIRLEEDPEDPDNVEVDIEIIPLSPFSAG [r14_604_TrMRF] | 10 ± 0.795 | 8.7 ± 0.92 | 11.5 ± 0.669
10 | SAGGSAGGSEIKIEKAEITVEYDEETGVFRATITLPDGYRITAEFRLRPDGSLELTRVEIEEVSAGGSAGGS [r12_111_TrROS_Hall] | 22.1 ± 1.05 | 22.5 ± 0.46 | 18 ± 0.795
11 | SAGGSAGGGNVYVKIEIYPYDPKNGEPQEQDITIPFETKEDAKDEIEKLLNMPNGMWIKIEVVDSAGGSAGG [r7_0_TrROS] | 6.17 ± 0.502 | 6.16 ± 0.146 | 5.49 ± 0.222
12 | SAGGSAGGSAKKIKIKIKVYNPETKEVLELEIEVSEEEAEELAKKLAEELEKKGYKIEEVEISAGGSAGGSA [r18_3_TrROS_Hall] | 16.1 ± 0.502 | 14.5 ± 0.351 | 18.7 ± 1.46
13 | SAGDGITVNPEKVTLTLDITLPDGTVLRVTVTLTPDGVEVTVEPVPVPPLPGATSPEEAEELLKQALASSAG [r5_272_TrMRF] | 9.79 ± 0.347 | 9.93 ± 0.36 | 8.33 ± 0.377
14 | SAGEEIAKRLAEELKEKGYEVEVKVTVEYDEETGEVTITIEIKVKPKPAPPVKIEKKLEGMSEEEKKALSAG [r5_413_TrROS_Hall] | 0.782 ± 1.21 | 0.574 ± 0.351 | 0.471 ± 0.502
15 | SAMKKLTEEEIEKLAKELAKEGKVEIKIKVEKKVVKNKNGKKKEVTKVKIEIKAPPEAKKKLEKLKKKLSAG [r14_628_TrROS_Hall] | 1.5 ± 3.31 | 4.15 ± 0.795 | 1.74 ± 1.42
16 | SAGGPEELELTLSIDYPDLTPEQAAEEARRLLEGLGFEVKEIPVTVEPGPGKVTVRARVTVLPPEERSAGGS [r16_287_TrMRF] | 4.42 ± 0.711 | 5.07 ± 0.209 | 3.59 ± 0.502
17 | SAGGSAGGSSIGRTEYIPEENLIVREEPETGLTIITKKPPNGPNIVYTIEPETGEKTVEESLISAGGSAGGS [r12_55_JUSTAS] | 1.22 ± 0.837 | -0.395 ± 0.92 | 1.86 ± 0.28
18 | SAGGSAGGSKKEYLVLVYNPATGEPFPILAPDDVPFEELAKKIADEILKGLPKDVKIEFVKLGSAGGSAGGS [r20_213_TrMRF] | 3.66 ± 0.711 | 3.33 ± 0.255 | 3.38 ± 0.36
19 | SAGGKKTVKIEIVLPKEELEELLKKLLEEAKKKGLKVEVKVELKEVEVEVNGKKKKVLVLKVEIKVEPSAGG [r13_974_TrROS_Hall] | 14.9 ± 0.795 | 15.7 ± 0.586 | 13.3 ± 0.502
20 | SAGGSAGGSAMKILSVTEEVLPNGTRVVRVTVKLPTPKTREIVVSPEVVEAGRLDEVVEELLSAGGSAGGSA [r18_129_JUSTAS] | 6.96 ± 0.259 | 7.61 ± 0.13 | 5.76 ± 0.138
21 | SAGGSATSIEYESPGVVETVSFTREPDGTLTVTVTVREPNGPVLKTLPTTETLPPDAGVTASVPLPSAGGSA [r15_950_JUSTAS] | 2.22 ± 0.753 | 3.85 ± 0.544 | 0.385 ± 0.669

Row | Sequence | folding stability dG unfold [1] [kJ/mol] | folding stability dG unfold [2] [kJ/mol] | folding stability dG unfold [3] [kJ/mol]
22 | SAGGSALAEKAKELALEKGYDPVKVTYDPKTGTLTMTAKPPGGKEVKMTFTIDEDTITITTTPLTKSAGGSA [r15_561_JUSTAS] | 10.4 ± 0.669 | 12.4 ± 0.326 | 4.17 ± 0.138
23 | SAGGSAPWRPITITIPGSWEEIKELAKKFVNDGNIRDVEVEPVPDPGYYKVTVWVRDPNGNWYLVFSAGGSA [r15_177_TrROS] | 12.2 ± 0.837 | 13.4 ± 0.13 | 9.33 ± 0.669
24 | SAKMYLVIIEIKKDGKTYKLIIIIPEEDENLTEEEILEKIRELAEKLNLEIEKIEVIPLEEAKKLLEELSAG [r14_953_TrROS_Hall] | 21.9 ± 0.544 | 22 ± 0.544 | 15.3 ± 0.31
25 | SAGGGMLLTTTQTITLPNGTLLTVTSTFTLTPPAVPVPVVELDESSIAEYDPATGILTDPSVPTPIPVPSAG [r5_807_JUSTAS] | 3.2 ± 0.418 | 2.49 ± 0.46 | 3.07 ± 0.276
26 | SAGGSAGGSAGGSGNPVVRVFEFDDYIAVVTFNPGDGSVEVLSVGKVPPAAIPGSPELSSAGGSAGGSAGGS [r4_21_TrMRF] | 4.89 ± 0.151 | 4.87 ± 0.138 | 4.5 ± 0.1
27 | SAGSMSFELTVDYEKLPDGTYRVRATITIYDPNNNNPLKTVDFEGEATSEEEAEARARARAEEVKEAASAGG [r19_255_JUSTAS] | 11.3 ± 0.711 | 12.31 ± 0.0962 | 7.7 ± 0.326
28 | SAGGSAGGKVTVDPAKVKAILTLKDGSKLIVLEDGVLLYNPKTEKVTLVSLSDLKKLPEDAPVPSAGGSAGG [r6_889_TrMRF] | 7.28 ± 0.226 | 7.73 ± 0.109 | 6.72 ± 0.176
29 | SAKITFIAPGGKPIVIDIDPNYEVIEVIEFPELGVVLILLRNPETGELYAILITPPDYRPTYIELIPLDSAG [r14_311_TrMRF] | 17.5 ± 0.837 | 18 ± 0.628 | 14.4 ± 0.402
30 | SAGGSAGGSAGKIEIYPNDNQYYIKITVPRRNPNNGKWERQERTIPMPPDQAKELLKNGISAGGSAGGSAGG [r11_389_TrROS] | -0.712 ± 1.26 | -1.84 ± 1.88 | 0.279 ± 0.586
31 | SAGGSVTTETDEYFYPDNLFTVAKTTLYVGSGPVEATAVSYPTFTLVNVHYPDGSVDTFLFTLTDDSSAGGS [r16_108_TrMRF] | 12.9 ± 0.544 | 14.9 ± 0.251 | 9.94 ± 0.46
32 | SAGGSAGGGMPPVVTTEISVEEVRPDERDENGNRYFLVTTTLTFPDSTVTTERWLEEEELEELLSAGGSAGG [r6_724_JUSTAS] | 4.57 ± 0.628 | 3.82 ± 0.669 | 5.43 ± 0.138
33 | SAGGSGKVIEIPIELPEDKTITLRLDPETGKAVVEAEENVPLEKVIEAAKKIFEENGFELNGLDISSAGGSA [r2_497_TrMRF] | 3.27 ± 0.502 | 3.03 ± 0.385 | 3.3 ± 0.134
34 | SDKVVIHFYPGMPVSNIVERVADNPDMTIEIVMPPGMKPSWYNYIRKALRDANIPKDQKVEIEWVPYDDMSA [r9_670_TrROS] | 15 ± 0.339 | 16.4 ± 0.176 | 13 ± 0.502
35 | SAGGSAGGSAGGSGSVRIKVYNPKTGEVLELEVPEELVPAAVEAAKALGFEKVEVSPGKSAGGSAGGSAGGS [r4_102_TrMRF] | 10.4 ± 0.544 | 12.2 ± 0.322 | 6.67 ± 0.272
36 | SAGGSASMKIRVYTISLYRPDGESVRDVPIVVPENEPDVDPEALAKAIADELGLVKVEISEEIVPLSAGGSA [r15_333_JUSTAS] | 4.77 ± 0.753 | 5.87 ± 1.3 | 2.46 ± 0.406
37 | SAGGPSHPLGPVALTLDPAASTLTVTLGDEVLTLPVPPGVTATATSYPDSVTVTLTFPDGTVVTVTLPLSAG [r5_21_JUSTAS] | 12.1 ± 0.234 | 13.3 ± 0.142 | 9.13 ± 0.264
38 | SAGMVEVSVTVSPRADGTITVTITLTKTFPVKDSKGNLYLETTTKTVTVPVTSLEEAPVIVKEVIDKLSAGG [r19_218_JUSTAS] | 14.8 ± 0.628 | 13.5 ± 0.586 | 16 ± 0.795
39 | MKPGETKTLTLTIVDEETGETYTVKVTVTYDEDTGVVTIKAEITYPDGRKFTVTARFNRETGELTEISIEPS [r1_144_TrROS_Hall] | 18.1 ± 0.41 | 18.6 ± 0.314 | 16.5 ± 0.364
40 | SAGGSAGGSAGGPDDWVEVYFIMVSIKPKEVKPDPNGGAEYEFEIKISIFPFWIPPDDISAGGSAGGSAGGS [r10_524_TrROS] | 16.5 ± 0.92 | 17.4 ± 0.753 | 13.9 ± 1.09
41 | SAGGPTAPAGGPLLAPVPVVVPVPVTLTFPNLTPEQAEALAEYFRSLGAEVSYDSATGTLTVRDYRTSAGGS [r16_765_TrMRF] | 15.01 ± 0.138 | 16.29 ± 0.0586 | 9.54 ± 0.255
42 | SAGVVVRPGEPVPFYVVRVETELRTRPRPDGSEVTTVETRVEVRPYTVTVGPVPVVEVPPDATDPADAASAG [r5_770_TrMRF] | 13.4 ± 0.669 | 16.6 ± 0.711 | 8.75 ± 0.837
